Experimental findings from PMC6776071 (2019) are described below.

The assay deals with thrombin (bovine alpha-thrombin) (bovine). Description: SPR.

Bridge positions count the residues as written; N and C are the ends.

B1: M-Hir (M-hirudin-HN-His tag) (natural protein)
chain: MNRYSVCTETGQNLCLCEGSDLCSLDNHCEIGSNGKNRCVKGEGKPKKPQSNSDLPEEKYEPIPIEDYDK
modifications: disulfide 7-15, 17-29, 23-39
In the case of B1, binding was put at a Kd of 2970 nM.

B2: mature hirudin-HN protein (Hir) (natural protein)
chain: NRYSVCTETGQNLCLCEGSDLCSLDNHCEIGSNGKNRCVKGEGKPKKPQSNSDLPEEKYEPIPIEDYDK
B2 registered a Kd of 64.7 nM.

One may read the Kd as the equilibrium constant for the complex coming apart. High values mean weaker binding, low ones tighter binding.
